Laboratory results published in patent US20240228562A1, “NOVEL LIPOCALIN MUTEINS SPECIFIC FOR CONNECTIVE TISSUE GROWTH FACTOR (CTGF)” (PIERIS PHARMACEUTICALS GMBH, priority 2021, published 2024).

T1: Murine CTGF (Mus musculus, UniProt P29268)
T1 construct: purchased Abbexa
T1 sequence (P29268 26-348): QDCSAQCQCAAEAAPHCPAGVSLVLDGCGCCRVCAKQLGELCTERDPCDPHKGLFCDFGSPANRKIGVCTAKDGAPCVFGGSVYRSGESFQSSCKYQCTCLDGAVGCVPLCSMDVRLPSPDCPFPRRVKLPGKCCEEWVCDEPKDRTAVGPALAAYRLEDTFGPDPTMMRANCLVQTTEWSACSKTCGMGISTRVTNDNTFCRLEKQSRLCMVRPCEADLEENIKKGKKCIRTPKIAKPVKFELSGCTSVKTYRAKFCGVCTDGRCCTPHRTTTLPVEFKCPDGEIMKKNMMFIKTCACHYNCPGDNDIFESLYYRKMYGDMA

T2: Rat CTGF (Rattus norvegicus, UniProt Q9R1E9)
T2 construct: purchased R&D Systems
T2 sequence (Q9R1E9 25-347): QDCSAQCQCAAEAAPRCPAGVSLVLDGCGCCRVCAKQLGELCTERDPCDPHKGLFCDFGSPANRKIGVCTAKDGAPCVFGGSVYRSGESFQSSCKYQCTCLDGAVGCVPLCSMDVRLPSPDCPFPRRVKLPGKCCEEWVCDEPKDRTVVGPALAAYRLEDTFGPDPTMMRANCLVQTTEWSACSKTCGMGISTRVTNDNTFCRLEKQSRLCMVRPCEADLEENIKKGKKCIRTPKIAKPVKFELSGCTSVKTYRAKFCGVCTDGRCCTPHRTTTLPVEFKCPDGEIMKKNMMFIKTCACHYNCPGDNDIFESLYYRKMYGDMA


Tests used:
Murine CTGF = molecular target: T1, Murine CTGF; assay: SPR binding kinetics and affinity, murine CTGF; design: key to Murine CTGF kon / Murine CTGF koff / Murine CTGF KD: B binding without determination of kinetics constants; details: 25° C., 1:1 binding model
Experimental: (§1) Surface plasmon resonance (SPR) was used to measure binding kinetics and affinity of the representative lipocalin muteins disclosed herein.
(§2) The binding of exemplary lipocalin muteins to human (Creative Biomart), cynomolgus, rat (R&D Systems) and mouse CTGF (Abbexa) was determined by SPR using a Biacore instrument (Cytiva, formerly GE Healthcare). Some targets were fused to a human IgG1 Fc tag, and captured via the anti-human IgG antibody kit, others were directly immobilized.
(§3) For some measurements, human CTGF with a human IgG1 Fc Tag or rat or murine CTGF without a tag were directly immobilized to a CM5 Chip. The carboxyl groups on the chip were activated using 1-ethyl-3-(3-dimethylaminopropyl)-carbodiimide (EDC) and N-hydroxysuccinimide (NHS). Subsequently, the targets at a concentration of 3-5 μg/mL in 10 mM sodium acetate (pH) 4.5 were applied at a flow rate of 10 μL/min until an immobilization level of 300-1100 resonance units was achieved. Residual non-reacted NHS-esters were blocked by passing a solution of 1 M ethanolamine across the surface. The reference channel was activated/deactivated. For the capture setting, targets with an IgG Fc Tag at 0.25-2.5 μg/mL in HBS-EP+ buffer were captured by the anti-human IgG-Fc antibody at the chip surface for 180 s at a flow rate of 10 μL/min.
(§4) The binding assay was carried out with a contact time of 180 s, a dissociation time of 900-3600 s and a flow rate of 30 μL/min. All measurements were performed at 25° C. […] For the directly immobilized targets, the same regeneration conditions were used. Prior to the protein measurements, three startup cycles were performed for conditioning purposes. Data were evaluated with Biacore Evaluation software. Double referencing was used and the 1:1 binding model was used to fit the raw data.
(§5) The values determined for kon, koff and the resulting equilibrium dissociation constant (KD) for exemplary lipocalin muteins are summarized in Table 4.

Rat CTGF = molecular target: T2, Rat CTGF; assay: SPR binding kinetics and affinity, rat CTGF; design: key to Rat CTGF kon / Rat CTGF koff / Rat CTGF KD: B binding without determination of kinetics constants; details: 25° C., 1:1 binding model
Experimental: as §1, §2, §3, §4, §5

human CTGF [1] = molecular target: T3, human CTGF (Homo sapiens, UniProt P29279, H83D); assay: SPR binding kinetics and affinity, human CTGF; details: 25° C., 1:1 binding model
T3 construct: purchased Creative Biomart
Experimental: as §1, §2, §3, §4

human CTGF [2] = molecular target: T4, human CTGF (Homo sapiens, UniProt P29279); assay: SPR binding kinetics and affinity, human CTGF; details: 25° C., 1:1 binding model
T4 construct: purchased Creative Biomart
Experimental: as §1, §2, §3, §4

[3] = Thermal stability assessment by nanoDSC; type: physicochemical; details: 1 mg/mL in PBS, scan 25-100° C. at 1° C./min; for TM: major transition
Experimental: To determine the melting temperatures (Tms) of the lipocalin muteins, which is a general indicator for folding stability, the CTGF specific muteins, at a protein concentration of 1 mg/mL in PBS (Gibco), were scanned (25-100° C.) at 1° C./min using a capillary nanoDSC instrument (CSC 6300, TA Instruments). […] Several unfolding events can contribute to the observed thermogram. In cases with multiple transitions, the one with the major unfolding energy best represents the overall protein fold and is reported. Muteins were produced as described in Example 3. SEQ ID NOs: 3, 7, 9, 25, and 29 were expressed using E. coli, the other muteins were expressed using CHO cells.
The resulting maximum melting temperatures as well as the onset temperature of melting for exemplary lipocalin muteins and fusion proteins are listed in Table 3 below.

cynomolgus CTGF = assay: SPR binding kinetics and affinity, cynomolgus CTGF; details: 25° C., 1:1 binding model
Experimental: as §1, §2, §3, §4, §5

T3 sequence (P29279 with tags, fused parts or gaps H83D): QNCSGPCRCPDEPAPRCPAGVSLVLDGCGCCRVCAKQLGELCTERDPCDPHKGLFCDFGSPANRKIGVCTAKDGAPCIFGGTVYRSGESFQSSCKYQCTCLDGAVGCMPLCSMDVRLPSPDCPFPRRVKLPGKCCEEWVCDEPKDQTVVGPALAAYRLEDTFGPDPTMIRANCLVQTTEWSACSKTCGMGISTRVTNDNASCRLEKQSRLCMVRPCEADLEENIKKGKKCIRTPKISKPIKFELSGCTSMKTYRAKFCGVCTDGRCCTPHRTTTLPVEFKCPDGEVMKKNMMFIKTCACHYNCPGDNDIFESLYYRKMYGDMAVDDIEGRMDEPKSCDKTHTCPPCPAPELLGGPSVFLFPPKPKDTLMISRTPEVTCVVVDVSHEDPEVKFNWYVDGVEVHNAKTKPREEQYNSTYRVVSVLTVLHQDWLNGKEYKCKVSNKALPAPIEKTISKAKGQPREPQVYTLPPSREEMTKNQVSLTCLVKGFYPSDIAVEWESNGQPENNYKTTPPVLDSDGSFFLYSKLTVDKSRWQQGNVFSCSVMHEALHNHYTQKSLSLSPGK
T4 sequence (P29279 with tags, fused parts or gaps H83D): as above
Chain of cynomolgus CTGF (as listed by the source): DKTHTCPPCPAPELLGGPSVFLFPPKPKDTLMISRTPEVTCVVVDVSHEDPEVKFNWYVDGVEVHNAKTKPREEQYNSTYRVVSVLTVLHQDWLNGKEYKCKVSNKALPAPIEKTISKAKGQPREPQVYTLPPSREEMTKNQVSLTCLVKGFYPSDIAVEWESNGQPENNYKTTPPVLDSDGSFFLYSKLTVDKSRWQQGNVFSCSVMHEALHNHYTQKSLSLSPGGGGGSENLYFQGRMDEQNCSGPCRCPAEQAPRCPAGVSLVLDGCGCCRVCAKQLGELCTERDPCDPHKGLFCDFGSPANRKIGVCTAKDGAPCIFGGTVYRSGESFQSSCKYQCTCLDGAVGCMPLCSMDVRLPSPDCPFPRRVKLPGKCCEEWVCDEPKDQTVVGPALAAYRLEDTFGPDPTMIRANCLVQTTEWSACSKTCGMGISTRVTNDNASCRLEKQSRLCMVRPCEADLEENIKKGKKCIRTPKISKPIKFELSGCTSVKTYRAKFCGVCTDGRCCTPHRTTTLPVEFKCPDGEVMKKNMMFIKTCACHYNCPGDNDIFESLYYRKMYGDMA

Row | Molecule | Murine CTGF KD (Murine CTGF) | Murine CTGF koff (Murine CTGF) | Murine CTGF kon (Murine CTGF) | Rat CTGF koff (Rat CTGF) | Rat CTGF kon (Rat CTGF) | human CTGF kon (human CTGF [1]) | human CTGF koff (human CTGF [2]) | cynomolgus CTGF koff (cynomolgus CTGF) | cynomolgus CTGF kon (cynomolgus CTGF) | Rat CTGF KD (Rat CTGF) | ONSET MELTING [3] | TM [3]
1 | SEQ ID NO: 35: optimized CTGF-binding hNGAL lipocalin mutein (protein, lipocalin mutein) QDSTSDLIPAPPLSKVPLQQNFQDNQFQGKWYVVGWAGNVKLREDKQPLKMSATIYELKEDKSYDVTEVVFEQKKCHYIIKTFVPGSQPGEFTAGDIKSPPGYTSSLVRVVSTNYNQHAMVFFKKVSQNREFFWITLYGRTKELTSELKENFIRFSKSLGLPENHIVFPVPIDQCIDG | – | 0.000287 s⁻¹ | 128000 M⁻¹ s⁻¹ | 0.000273 s⁻¹ | 193000 M⁻¹ s⁻¹ | 108000 M⁻¹ s⁻¹ | 5.94e-05 s⁻¹ | – | – | – | 63 °C | 78 °C
2 | SEQ ID NO: 22: optimized CTGF-binding hNGAL lipocalin mutein (protein, lipocalin mutein) QDSTSDLIPAPPLSKVPLQQNFQDNQFQGKWYVVGIAGNAILRVDKQPAKMFATIYELKEDKSYDVTSVRFEAKSCVYTIKTFVPGSQPGEFTAGNIKSAPGQTSTLVRVVSTNYNQHAMVFFKHVSQNREIFVITLYGRTKELTSELKENFIRFSKSLGLPENHIVFPVPIDQCIDG | B | B | B | 4.01e-05 s⁻¹ | 181000 M⁻¹ s⁻¹ | 142000 M⁻¹ s⁻¹ | 8.05e-06 s⁻¹ | – | – | – | 59 °C | 73 °C
3 | SEQ ID NO: 6: optimized CTGF-binding hNGAL lipocalin mutein (protein, lipocalin mutein) QDSTSDLIPAPPLSKVPLQQNFQDNQFQGKWYVVGRAGNNQLREDKSPPKMWATIYELKEDKSYDVTHVHFSTKKCRYIIDTFVPGSQPGEFTAGAIKSGPGLTSPLVRVVSTNYNQHAMVFFKWVTQNREWFTITLYGRTKELTSELKENFIRFSKSLGLPENHIVFPVPIDQCIDG | B | B | B | B | B | 290000 M⁻¹ s⁻¹ | 0.000149 s⁻¹ | – | – | B | 48 °C | 66 °C
4 | SEQ ID NO: 10: optimized CTGF-binding hNGAL lipocalin mutein (protein, lipocalin mutein) QDSTSDLIPAPPLSKVPLQQNFQDNQFQGKWYVVGLAGNAILREDKQPAKMFATIYELKEDKSYDVTSVRFEAKSCSYTIKTFVPGSQPGEFTAGNIKSAPGQTSTLVRVVSTNYNQHAMVFWKSVAGTRESFNIALYGRTKELTSELKENFIRFSKSLGLPENHIVFPVPIDQCIDG | B | B | B | 4.08e-05 s⁻¹ | 88800 M⁻¹ s⁻¹ | 67700 M⁻¹ s⁻¹ | 2.23e-06 s⁻¹ | – | – | – | 50 °C | 66 °C

Further lines, with some results ahead:

Row | Murine CTGF KD (Murine CTGF) | Murine CTGF koff (Murine CTGF) | Murine CTGF kon (Murine CTGF) | Rat CTGF koff (Rat CTGF) | Rat CTGF kon (Rat CTGF) | human CTGF kon (human CTGF [1]) | human CTGF koff (human CTGF [2]) | cynomolgus CTGF koff (cynomolgus CTGF) | cynomolgus CTGF kon (cynomolgus CTGF) | Rat CTGF KD (Rat CTGF) | Molecule | ONSET MELTING [3] | TM [3]
5 | B | B | B | 0.000362 s⁻¹ | 294000 M⁻¹ s⁻¹ | 211000 M⁻¹ s⁻¹ | 6.65e-05 s⁻¹ | – | – | – | SEQ ID NO: 5: optimized CTGF-binding hNGAL lipocalin mutein (protein, lipocalin mutein) QDSTSDLIPAPPLSKVPLQQNFQDNQFQGKWYVVGKAGNALREDKEPPKMWATIYELKEDKSYDVTHVHFLTKKCKYLIDTFVPGSQPGEFTIGAIKSGPGLTSPLVRVVSTNYNQHAMVFFKWVSQNREWFTITLYGRTKELTSELKENFIRFSKSLGLPENHIVFPVPIDQCIDG | 52 °C | 66 °C
6 | – | 5.29e-05 s⁻¹ | 176000 M⁻¹ s⁻¹ | 6.3e-05 s⁻¹ | 279000 M⁻¹ s⁻¹ | 172000 M⁻¹ s⁻¹ | 1.71e-05 s⁻¹ | – | – | – | SEQ ID NO: 33: optimized CTGF-binding hNGAL lipocalin mutein (protein, lipocalin mutein) QDSTSDLIPAPPLSKVPLQQNFQDNQFQGKWYVVGWAGNAKLREDKQPFKMSATIYELKEDKSYDVTEVVFEQKKCHYIIKTFVPGSQPGEFTEGNYKRRPRLWSDLVRVVSTNYNQHAMVFFKKVHQNREFFWITLYGRTKELTSELKENFIRFSKSLGLPENHIVFPVPIDQCIDG | 56 °C | 72 °C
7 | – | 0.000264 s⁻¹ | 133000 M⁻¹ s⁻¹ | – | – | 109000 M⁻¹ s⁻¹ | 6.39e-05 s⁻¹ | – | – | – | SEQ ID NO: 32: optimized CTGF-binding hNGAL lipocalin mutein (protein, lipocalin mutein) QDSTSDLIPAPPLSKVPLQQNFQDNQFQGKWYVVGWAGNVKLREDKQPFKMSATIYELKEDKSYDVTEVVFEQKKCHYIIKTFVPGSQPGEFTLSPISSSPGLVSHLVRVVSTNYNQHAMVFFKKVHQNREFFWITLYGRTKELTSELKENFIRFSKSLGLPENHIVFPVPIDQCIDG | 62 °C | 79 °C
8 | – | 0.00286 s⁻¹ | 240000 M⁻¹ s⁻¹ | – | – | 150000 M⁻¹ s⁻¹ | 0.000169 s⁻¹ | 0.000238 s⁻¹ | 139000 M⁻¹ s⁻¹ | – | SEQ ID NO: 34: optimized CTGF-binding hNGAL lipocalin mutein (protein, lipocalin mutein) QDSTSDLIPAPPLSKVPLQQNFQDNQFQGKWYVVGWAGNVILREDKQPFKMSATIYELKEDKSYDVTEVVFEQKKCHYIIKTFVPGSQPGEFTLGDIKSPPGETSTLVRVVSTNYNQHAMVFFKKVSQNREFFWITLYGRTKELTSELKENFIRFSKSLGLPENHIVFPVPIDQCIDG | 67 °C | 82 °C
